The experiment addresses human glypican-3 naturally expressed on the cell surface (HepG2 and other GPC3+ cell lines) (human) (UniProt P51654). The experiment is described as follows: flow cytometry on HepG2, 1G12 with anti-mouse dye, grey = isotype control; on Hs578T the histogram lies on the control's.

Sequence of human glypican-3 naturally expressed on the cell surface (HepG2 and other GPC3+ cell lines) (human) (P51654 25-554 limits assumed): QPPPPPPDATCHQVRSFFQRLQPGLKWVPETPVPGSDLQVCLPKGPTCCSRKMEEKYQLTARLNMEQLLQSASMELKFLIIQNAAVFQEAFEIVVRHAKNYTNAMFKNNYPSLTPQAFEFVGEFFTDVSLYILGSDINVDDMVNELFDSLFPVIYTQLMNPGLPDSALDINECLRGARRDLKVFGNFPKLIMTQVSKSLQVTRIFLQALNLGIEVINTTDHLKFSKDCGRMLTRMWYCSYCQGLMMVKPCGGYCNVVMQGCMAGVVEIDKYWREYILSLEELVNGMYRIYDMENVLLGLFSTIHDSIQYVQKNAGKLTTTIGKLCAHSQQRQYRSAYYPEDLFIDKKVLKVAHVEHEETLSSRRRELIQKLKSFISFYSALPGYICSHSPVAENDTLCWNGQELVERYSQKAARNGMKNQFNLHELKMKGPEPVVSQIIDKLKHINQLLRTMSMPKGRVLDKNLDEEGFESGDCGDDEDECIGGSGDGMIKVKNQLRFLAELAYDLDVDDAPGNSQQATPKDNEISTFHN

“commercial monoclonal anti-human GPC3 antibody (clone 1G12)” showed a % of cells in the positive gate of 46.1%.
